{"source": "paper PMC8281026", "about": "“Peptide Based Inhibitors of Protein Binding to the Mitogen-Activated Protein Kinase Docking Groove” (Frontiers in Molecular Biosciences, 2021)", "target": "ERK2, P28482", "sequence (P28482 whole entry)": "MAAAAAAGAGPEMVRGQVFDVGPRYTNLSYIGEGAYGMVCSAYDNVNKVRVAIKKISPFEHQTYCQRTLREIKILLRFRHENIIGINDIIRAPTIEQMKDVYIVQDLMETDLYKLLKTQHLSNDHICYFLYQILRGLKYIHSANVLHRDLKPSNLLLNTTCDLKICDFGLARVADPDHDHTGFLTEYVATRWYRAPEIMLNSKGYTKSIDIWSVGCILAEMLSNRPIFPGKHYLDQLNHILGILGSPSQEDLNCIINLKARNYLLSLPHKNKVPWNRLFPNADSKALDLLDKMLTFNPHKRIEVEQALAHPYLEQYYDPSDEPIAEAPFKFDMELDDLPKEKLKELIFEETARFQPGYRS", "test": "fluorescence polarisation; competitive: complex of the MAPK with 50 nM Cf-RHDF at 60-80% complex formation titrated with increasing unlabeled peptide; 20 mM Tris pH 8.0, 100 mM NaCl, 0.05% Brij35, 2 mM TCEP; 384-well black plates; triplicates; constants are called Kd in Table 1 and Ki in the …"}
{"binder": "octaarginine conjugate of the native RHDF1 sequence (peptide 2) (modifications not checked) chain 1: SLQRKKPPWLKLDIPSC chain 2: RRRRRRRR", "values": [{"measurement": "Kd", "result": 600, "unit": "nM"}]}
